The results in this text go back to article PMC11758000.

The test deals with FGFR3-TACC3 RT112 (fibroblast growth factor receptor 3 fused with transforming acidic coiled-coil-containing protein 3), 5F1Y variant, in SMA lipid particles. Briefly: mass photometry; RT112-SMALPs at 500 nM incubated on ice for 30 min with FGF1 at a 10x molar ratio, drop dilution into 50 mM HEPES, 500 mM NaCl, 0.5% v/v glycerol, 1 mM TCEP, pH 7.9, room temperature; compared with ligand-free RT112.

A word on the stoichiometry N: it is a count of units in the complex or per binding partner. Consider “FGFR3-TACC3 RT112 (fibroblast growth factor receptor 3 fused with transforming acidic coiled-coil-containing protein 3), 5F1Y variant, in SMA lipid particles”, for which the stoichiometry N was found to be 2.
